Data on four substances can be found in patent US20100137566A1.

Assay [1] deals with GST-karyopherin α (karyopherin α expressed as a fusion protein with glutathione S-transferase), immobilized on glutathione Sepharose beads. Kind of assay: pull-down on GST-karyopherin α beads, PCR, Phosphorimager; against untreated lysate.
For assay [2] the target is unchanged. Kind of assay: pull-down on GST-karyopherin α beads, PCR.
Assay [3] has the same target. Nature of the assay: pull-down on GST-karyopherin α beads, PCR; against untreated extract.

In the case of HIV-1RF pre-integration complexes, in assay [1], the fold reduction of binding in the presence of 0.1 µM CNI-H0294 (small molecule) worked out at 8 fold and the fold reduction of binding in the presence of 1 µM CNI-H0294 (small molecule) was 25 fold.

As to “HIV-1NLHX pre-integration complexes with mutated MA NLS (MA NLS- Vpr+)”, in assay [2], the binding as percent of that of MA NLS+ complexes (% of MA NLS+ complexes) was in the range of 1 to 5.

Take “wild-type HIV-1NLHX pre-integration complexes”: the percent reduction of binding in the presence of 1 µM CNI-H0294 (small molecule) in assay [3] was determined as 95%.

As for “HIV-1NLHX pre-integration complexes that lack Vpr (MA NLS+ Vpr-)”, the percent reduction of binding in the presence of 1 µM CNI-H0294 (small molecule) in assay [3] amounted to 95%.
